T1: APC (15 amino acid repeats) (Homo sapiens, UniProt P25054)
T1 construct: of human APC for the amino acids His1012–Glu1215 (APC 15 amino acid repeats); expressed in transfected cells; host or cells: yeast (two-hybrid, Matchmaker, Clontech)
T1 sequence (P25054 1006-1209 limits assumed): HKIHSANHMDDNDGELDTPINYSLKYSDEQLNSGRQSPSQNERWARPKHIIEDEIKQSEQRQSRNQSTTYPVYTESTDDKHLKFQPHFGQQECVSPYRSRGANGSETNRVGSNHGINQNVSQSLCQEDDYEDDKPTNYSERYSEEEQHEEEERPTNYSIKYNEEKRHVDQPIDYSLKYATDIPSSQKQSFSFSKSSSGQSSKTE

T2: APC (20 amino acid repeats) (Homo sapiens, UniProt P25054)
T2 construct: for the amino acids Ser1259Asp 1400 (APC 20 amino acid repeats); expressed in transfected cells; host or cells: yeast (two-hybrid, Matchmaker, Clontech)
T2 sequence (P25054 1253-1394 limits assumed): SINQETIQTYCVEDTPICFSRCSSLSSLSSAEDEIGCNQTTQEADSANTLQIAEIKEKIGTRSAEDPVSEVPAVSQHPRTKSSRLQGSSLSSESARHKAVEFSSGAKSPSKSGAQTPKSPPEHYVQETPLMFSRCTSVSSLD

B1: Arg 469: human β-catenin mutant, Arg 469 substituted by alanine (arm 8) (protein)
chain: LHNLSHHREGLLAIFKSGGIPALVKMLGSPVDSVLFYAITTLHNLLLHQEGAKMAVRLAGGLQKMVALLNKTNVKFLAITTDCLQILAYGNQESKLIILASGGPQALVNIMRTYTYEKLLWTTSRVLKVLSVCSSNKPAIVEAGGMQALGLHLTDPSQRLVQNCLWTLRNLSDAATKQEGMEGLLGTLVQLLGSDDINVVTCAAGILSNLTCNNYKNKMMVCQVGGIEALVRTVLRAGDREDITEPAICALAHLTSRHQEAEMAQNAVRLHYGLPVVVKLLHPPSHWPLIKATVGLIRNLALCPANHAPLREQGAIPRLVQLLVRAHQDTQRRTSMGGTQQQFVEGVRMEEIVEGCTGALHILARDVHNRIVIRGLNTIPLFVQLLYSPIENIQRVAAGVLCELAQDKEAAEAIEAEGATAPLTELLHSRNEGVATYAAAVLFRMSEDKPQDYKKRLSVELTSSLFRTEPMAWNETADLGLDIGAQGEPLGYRQDDPSYRSFHSGGYGQDALGMDPMMEHEMGGHHPGADYPVDGLPDLGHAQDLMDGLPPGDSNQLAWFDTDL
modifications: left off: large carriers; small tags and cut ends
B2: Arg 342: human β-catenin mutant, Arg 342 substituted by alanine (arm 5) (protein)
chain: B1 chain with R125A, A252R
modifications: left off: large carriers; small tags and cut ends
B3: Arg 274: human β-catenin mutant, Arg 274 substituted by alanine (arm 4) (protein)
chain: B1 chain with R57A, A252R
modifications: left off: large carriers; small tags and cut ends
B4: Lys 354: human β-catenin mutant, Lys 354 substituted by alanine (arm 6) (protein)
chain: B1 chain with K137A, A252R
modifications: left off: large carriers; small tags and cut ends
B5: Lys 345: human β-catenin mutant, Lys 345 substituted by alanine (arm 5) (protein)
chain: B1 chain with K128A, A252R
modifications: left off: large carriers; small tags and cut ends
B6: His 260: human β-catenin mutant, His 260 substituted by alanine (arm 3) (protein)
chain: B1 chain with H43A, A252R
modifications: left off: large carriers; small tags and cut ends

Numbering of substitutions follows the chain as printed. Entries after “also recorded” stand apart in the source; their conditions may differ.

T3 sequence (P27782 1-99): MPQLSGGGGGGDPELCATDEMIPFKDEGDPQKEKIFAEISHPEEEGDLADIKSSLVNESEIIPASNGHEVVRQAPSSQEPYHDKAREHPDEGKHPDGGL
Chain of conductin amino acids Ala342-Arg465 fused to Lex-A (vector BTM 116) (P0A7C2 other isoform, or with tags, fused parts or gaps limits assumed, form in doubt): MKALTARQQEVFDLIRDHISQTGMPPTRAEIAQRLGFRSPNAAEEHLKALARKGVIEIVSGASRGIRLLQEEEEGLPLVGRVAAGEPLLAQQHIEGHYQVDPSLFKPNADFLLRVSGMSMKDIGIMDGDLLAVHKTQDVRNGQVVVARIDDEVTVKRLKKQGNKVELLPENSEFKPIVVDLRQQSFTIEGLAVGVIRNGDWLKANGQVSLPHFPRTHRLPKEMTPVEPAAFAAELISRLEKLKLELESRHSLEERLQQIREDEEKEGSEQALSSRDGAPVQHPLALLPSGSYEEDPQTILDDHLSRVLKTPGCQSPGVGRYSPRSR

The target in one assay is T1, APC (15 amino acid repeats). Kind of assay: yeast 2-hybrid: interaction of β-catenin mutants with APC 15 amino acid repeats. The format is binding. To be noted: yeast 2-hybrid, alanine mutants. The procedure:
(§1) The mutagenesis of β-catenin in the armadillo repeats 3–8 was carried out by means of the “mutagenesis kit” of the company Clontech according to the producer's record and the mutants were checked by sequencing (FIG. 5). In all mutants the original amino acid was substituted by alanine. For analyzing the interactions the cDNA of human β-catenin (armadillo repeat 3 up to the C-terminal end of the protein) coding for the amino acids Leu218–Leu7 μl or its mutants was cloned into the fusion vector for the activation domain of Gal-4 (pGAD424, Clontech). The cDNA for the binding domains of the interaction partners was cloned into the Lex-A fusion vector BTM 116. To this end, the cDNA of LEF-1 for the amino acids 1–99, conductin for the amino acids Ala342–ARG465; of human APC for the amino acids His1012–Glu1215 (APC 15 amino acid repeats) and for the amino acids Ser1259Asp 1400 (APC 20 amino acid repeats) and E-cadherin for the amino acids Gin773–Asp884 (cytoplasmatic domain) were amplified with the respective primers PCR. The interaction of the Lex-A hybrids with β-catenin and its mutants was quantified by means of the β-galactosidase reporter activity in the yeast 2-hybrid system (report: “Matchmaker”. Clontech) (Tab. 2 and FIG. 6).
For B1, the “Interaction With APC-15, share of wild type β-catenin interaction” value (“Interaction With APC-15, share” for short) was “— (Interactions marked by — correspond to 60–100% of the wild type interaction)”.

Regarding B2, the “Interaction With APC-15, share” value was “— (Interactions marked by — correspond to 60–100% of the wild type interaction)”.

Turning to B3, the “Interaction With APC-15, share” value is “— (Interactions marked by — correspond to 60–100% of the wild type interaction)”.

For B4, the “Interaction With APC-15, share” value is 54%.

Consider B5, for which the “Interaction With APC-15, share” value was “— (Interactions marked by — correspond to 60–100% of the wild type interaction)”.

The target of a further assay is T2, APC (20 amino acid repeats). Kind of assay: yeast 2-hybrid: interaction of β-catenin mutants with APC 20 amino acid repeats. It counts as binding. To be noted: yeast 2-hybrid, alanine mutants. Here is the method:
as §1
On to B1, for which the “Interaction With APC-20, share of wild type β-catenin interaction” value (“Interaction With APC-20, share” for short) is “— (Interactions marked by — correspond to 60–100% of the wild type interaction)”.

For B2, the “Interaction With APC-20, share” value was 29%.

On to B3, for which the “Interaction With APC-20, share” value was 40%.

Consider B6, for which the “Interaction With APC-20, share” value amounted to 40%.

Consider B4, for which the “Interaction With APC-20, share” value is reported as “— (Interactions marked by — correspond to 60–100% of the wild type interaction)”.

B5: the “Interaction With APC-20, share” value is 0%.

Another assay has as its target T3, LEF-1 (Mus musculus, UniProt P27782).
T3 construct: the cDNA of LEF-1 for the amino acids 1–99; expressed in transfected cells; host or cells: yeast (two-hybrid, Matchmaker, Clontech)
Kind of assay: yeast 2-hybrid: interaction of β-catenin mutants with LEF-1. To be noted: yeast 2-hybrid, alanine mutants. It counts as binding. Here is the method: as §1
Consider B2, for which the “Interaction With LEF-1, share of wild type β-catenin interaction” value is listed as “— (Interactions marked by — correspond to 60–100% of the wild type interaction)”.

Turning to B3, the “Interaction With LEF-1, share of wild type β-catenin interaction” value is reported as “— (Interactions marked by — correspond to 60–100% of the wild type interaction)”.

Still in this assay, the particulars now being: β-catenin mutation, in words.
Consider B1, for which the “interaction with LEF-1/TCF-4” value is “blocking the interaction; also recorded: no interaction with LEF-1/TCF-4”.

The next assay deals with T4, conductin (Mus musculus, UniProt O88566).
T4 construct: conductin for the amino acids Ala342–ARG465; expressed in transfected cells; host or cells: yeast (two-hybrid, Matchmaker, Clontech)
T4 sequence (O88566 343-465 limits assumed): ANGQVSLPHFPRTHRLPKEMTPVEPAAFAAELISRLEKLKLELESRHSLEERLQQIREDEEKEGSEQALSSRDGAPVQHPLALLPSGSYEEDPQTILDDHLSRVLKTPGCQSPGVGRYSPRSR
Kind of assay: yeast 2-hybrid: interaction of β-catenin mutants with conductin. The format is binding. The settings on record: yeast 2-hybrid, alanine mutants. The procedure: as §1
For the molecule B1, the “Interaction With Conductin, share of wild type β-catenin interaction” value (“Interaction With Conductin, share” for short) is reported as “— (Interactions marked by — correspond to 60–100% of the wild type interaction)”.

On to B2, for which the “Interaction With Conductin, share” value is recorded as 20%.

Turning to B3, the “Interaction With Conductin, share” value was 29%.

Take B6: the “Interaction With Conductin, share” value amounted to 10%.

Turning to B4, the “Interaction With Conductin, share” value is listed as 43%.

On to B5, for which the “Interaction With Conductin, share” value is given as 22%.

Still in this assay, the particulars now being: β-catenin mutation, in words.
Turning to B3, the interaction with conductin entry is “no interaction with conductin”.

A further assay addresses conductin amino acids Ala342-Arg465 fused to Lex-A (vector BTM 116) (UniProt P0A7C2). Kind of assay: yeast 2-hybrid, β-galactosidase reporter; percent of wild type β-catenin.
Conditions: not given
For the molecule “human β-catenin (Leu218-Leu781) mutant Arg 457 to alanine, Gal-4 activation domain fusion (from UniProt P35222 218-781)”, the share of the interaction with wild type β-catenin in percent is 36%.

In turn, “human β-catenin (Leu218-Leu781) mutant Lys 394 to alanine, Gal-4 activation domain fusion (from UniProt P35222 218-781)” yielded a share of the interaction with wild type β-catenin in percent of 42%.

For the origin of these results see patent US7067474B1, “Agents for treating human illnesses based on β-catenin, and the production and use thereof” (Max-Delbruck-Centrum fur Molekulare Medizin, priority 1998, dated 2006).
